According to paper PMC11403483:

What was measured:
[1] = biological target: recombinant murine Psg23-myc-His (mouse); assay: BLI
[2] = biological target: recombinant PSG1 (pregnancy-specific glycoprotein 1) (human) (UniProt P11464); assay: SPR
Chain of recombinant PSG1 (pregnancy-specific glycoprotein 1) (human) (P11464 35-419): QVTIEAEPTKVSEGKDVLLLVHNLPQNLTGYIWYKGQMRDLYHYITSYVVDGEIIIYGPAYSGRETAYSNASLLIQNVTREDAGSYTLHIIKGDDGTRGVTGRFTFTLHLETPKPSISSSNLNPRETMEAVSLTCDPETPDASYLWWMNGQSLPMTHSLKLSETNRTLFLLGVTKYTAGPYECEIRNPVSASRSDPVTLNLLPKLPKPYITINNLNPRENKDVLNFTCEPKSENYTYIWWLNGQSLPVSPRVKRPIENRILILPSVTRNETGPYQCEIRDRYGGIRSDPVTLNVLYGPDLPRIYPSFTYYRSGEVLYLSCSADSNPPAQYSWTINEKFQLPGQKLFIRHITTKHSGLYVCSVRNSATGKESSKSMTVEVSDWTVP

Chain of recombinant mouse galectin 9 (O08573 whole entry): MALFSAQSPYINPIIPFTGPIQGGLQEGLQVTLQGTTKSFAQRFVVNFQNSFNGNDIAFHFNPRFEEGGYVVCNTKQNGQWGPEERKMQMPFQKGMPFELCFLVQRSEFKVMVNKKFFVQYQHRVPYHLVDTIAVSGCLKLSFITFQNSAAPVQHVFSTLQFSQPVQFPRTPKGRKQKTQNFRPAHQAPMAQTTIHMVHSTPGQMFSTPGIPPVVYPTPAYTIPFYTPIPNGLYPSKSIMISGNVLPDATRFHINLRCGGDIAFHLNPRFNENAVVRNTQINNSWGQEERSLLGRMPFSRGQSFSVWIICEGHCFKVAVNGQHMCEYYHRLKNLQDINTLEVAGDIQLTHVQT

Kd [1] [µM] | koff [1] [s⁻¹] | kon [1] [M⁻¹ s⁻¹] | Kd [2] [µM] | koff [2] [s⁻¹] | Substance
0.00228 | 0.00635 | 2.79e+06 | – | – | recombinant mouse galectin 9 (from UniProt O08573 1-353) (natural protein)
– | – | – | 5780 | 0.0106 | GAL-9 N-terminal carbohydrate recognition domain (domain or fragment)
– | – | – | 1.7 | 0.00415 | GAL-9 C-terminal carbohydrate recognition domain (domain or fragment)
